{"source": "patent US20110262479A1", "binders": {"B1": {"name": "β1α1/MBP-69-89 complex (rat RT1.B β1α1 construct loaded with MBP-69-89 peptide) (peptide-MHC)", "chain": "MGRDSPRDFVYQFKGLCYYTNGTQRIRDVIRYIYNQEEYLRYDSDVGEYRALTELGRPSAEYFNKQYLEQTRAELDTVCRHNYEGSEVRTSLRRLGGQDDIEADHVAAYGINMYQYYESRGQFTHEFDGDEEFYVDLDKKETIWRIPEFGQLTSFDPQGGLQNIAIIKHNLEILMKRSNSTQAVN", "peptide": "GSLPQKSQRSQDENPVVHF"}, "B2": {"name": "β1α1/MBP-55-69 complex (rat RT1.B β1α1 with Gp-MBP-55-69 peptide) (peptide-MHC)", "chain": "B1 chain", "peptide": "SGKDSHHAARTTHYG"}, "B3": {"name": "β1α1/CM-2 complex (rat RT1.B β1α1 construct loaded with cardiac myosin peptide CM-2) (peptide-MHC)", "chain": "B1 chain", "peptide": "KLELQSALEEAEASLEH"}, "B4": {"name": "A488-β1α1/MBP-69-89 (Alexa-488 conjugated rat β1α1 loaded with MBP-69-89) (peptide-MHC)", "chain": "B1 chain", "peptide": "GSLPQKSQRSQDENPVVHF", "modifications": "Alexa-488 dye conjugated, molar ratio dye/protein=1; site not stated"}}, "key": {"[1]": {"molecular_target": "TCRs of the MBP-69-89 specific short-term T cell line (Lewis rat) (rat)", "assay": "cell-based or functional assay"}, "[2]": {"molecular_target": "TCR of the rat Vβ8.2+ T cell hybridoma C14/BW12-12A1 (A1), specific for Gp-BP-72-89 (rat)", "assay": "flow cytometry, A1 hybridoma with 10 µM complex 17 h at 4 C, detected with OX6-PE"}, "[3]": {"molecular_target": "TCR of the rat Vβ8.2+ T cell hybridoma C14/BW12-12A1 (A1), specific for Gp-BP-72-89 (rat)", "assay": "flow cytometry, direct binding study on A1 hybridoma"}, "[4]": {"molecular_target": "TCR of the cardiac myosin CM-2-specific cell line (rat)", "assay": "flow cytometry, CM-2 line (blocked with unconjugated OX6) with 10 µM complex 17 h at 4 C, detected with OX6-PE"}, "[5]": {"molecular_target": "TCR of the rat Vβ8.2+ T cell hybridoma C14/BW12-12A1 (A1), specific for Gp-BP-72-89 (rat)", "assay": "flow cytometry, directly labelled complex on A1 hybridomas, 3 h at 4 C"}}, "data": [{"binder": "B1", "values": [{"measurement": "inhibition of proliferation of the T cell line to MBP-69-89 + APC after pre-treatment with 10 nM complex", "setting": "[1]", "result": "> 90", "unit": "%"}, {"measurement": "mean fluorescence intensity (MFI)", "setting": "[2]", "result": 800, "unit": "Units"}, {"measurement": "fold increase in MFI over background", "setting": "[3]", "result": 10, "unit": "fold"}]}, {"binder": "B2", "values": [{"measurement": "inhibition of proliferation of the T cell line to MBP-69-89 + APC after pre-incubation with 20 µM complex", "setting": "[1]", "result": 27, "unit": "%"}]}, {"binder": "B3", "values": [{"measurement": "mean fluorescence intensity (MFI)", "setting": "[4]", "result": 1800, "unit": "Units"}]}, {"binder": "B4", "values": [{"measurement": "MCI", "setting": "[5]", "result": 300, "unit": "Units"}]}]}
